This note sets out measurements from patent US20230272070A1 (published 2023).

The test deals with T1, human CD19 (human, UniProt P15391 20-556).
T1 construct: whole, on cells; also called huCD19
T1 sequence (looked up): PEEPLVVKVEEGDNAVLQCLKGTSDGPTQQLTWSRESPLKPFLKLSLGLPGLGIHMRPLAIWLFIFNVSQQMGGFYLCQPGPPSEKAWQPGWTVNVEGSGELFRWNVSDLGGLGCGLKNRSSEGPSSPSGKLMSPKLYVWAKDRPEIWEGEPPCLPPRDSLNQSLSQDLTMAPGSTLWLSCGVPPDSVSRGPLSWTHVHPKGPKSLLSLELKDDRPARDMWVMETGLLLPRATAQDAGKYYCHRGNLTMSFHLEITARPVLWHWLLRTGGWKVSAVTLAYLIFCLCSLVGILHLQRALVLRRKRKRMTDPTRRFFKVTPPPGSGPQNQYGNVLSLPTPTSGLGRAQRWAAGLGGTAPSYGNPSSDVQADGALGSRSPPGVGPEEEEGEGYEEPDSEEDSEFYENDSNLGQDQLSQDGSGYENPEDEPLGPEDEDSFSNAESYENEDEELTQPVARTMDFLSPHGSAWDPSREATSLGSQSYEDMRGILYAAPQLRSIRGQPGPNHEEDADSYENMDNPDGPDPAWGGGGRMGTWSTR
The test can be described thus: flow cytometry on human versus cynomolgus PBMC; reference: binding to cynomolgus PBMC. How it is done:
The ability of various anti-CD19 antibodies of the disclosure to bind various peripheral blood mononuclear cells (PBMC). Human and cynomolgus PBMC from frozen aliquots in citrate buffer were tested. […] The PBMC were labelled with anti-CD20-PE monoclonal antibody (mAb), anti-CD14-FITC mAb, and anti-CD3-PerCP mAb cross-reactive both to human and cynomolgus species. Cell surface bound hIgG1 were detected with a mouse anti-human IgG Fc-APC mAb. FACS gating was performed with the anti-CD20 mAb for the B lymphocyte population, with the anti-CD3 for the T lymphocyte population and with anti-CD14 for the monocyte population.
For orientation: A flow cytometer gives signals particle by particle.

B1: 10D8 antibody (antibody, human IgG1, V domains shown)
VH: QVQLVQSGAEVKKPGSSVKVSCKASGGTFSSYAISWVRQAPGQGLEWMGGIIPIFGTANYAQKFQGRVTITADESTSTAYMELSSLRSEDTAVYYCARDRGYDYVWGSYRYGAFDIWGQGTLVTVSS
VL: QSALTQPASVSGSPGQSITISCTGTSSDVGGYNYVSWYQQHPGKAPKLMIYEVSNRPSGVSNRFSGSKSGNTASLTISGLQAEDEADYYCSSYDVWVPHMVFGGGTKLTVL
notes: Tested as human IgG1; also called human IgG1 10D8 anti-CD19 antibody
In the case of B1, the “fold higher binding on human than on cynomolgus PBMC” value (shortened to “fold higher binding on human than”) was at most 10 fold.

B2: 9G8 antibody (antibody, human IgG1, V domains shown)
VH: EVQLVQSGAEVKKPGESLKISCKGSGYSFTSYWIGWVRQMPGKGLEWMGIIYPGDSDTRYSPSFQGQVTISADKSISTAYLQWSSLKASDTAMYYCARGVSGIYNLHGFDIWGQGTLVTVSS
VL: DIQMTQSPSSLSASVGDRVTITCRASQSISSYLNWYQQKPGKAPKLLIYAASSLQSGVPSRFSGSGSGTDFTLTISSLQPEDFATYYCQQGRFGSPFTFGQGTKVEIK
notes: also called human IgG1 9G8 anti-CD19 antibody
In the case of B2, the “fold higher binding on human than” value is at most 10 fold.

B3: 7F11 antibody (antibody, human IgG1, V domains shown)
VH: EVQLVQSGAEVKKPGESLKISCKGSGYSFTSYWIGWVRQMPGKGLEWMGIIYPGDSDTRYSPSFQGQVTISADKSISTAYLQWSSLKASDTAMYYCARGVSGIYNLHGFDIWGQGTLVTVSS
VL: DIQMTQSPSSLSASVGDRVTITCRASQSISSYLNWYQQKPGKAPKLLIYAASSLQSGVPSRFSGSGSGTDFTLTISSLQPEDFATYYCQQGMWDNPFTFGQGTKVEIK
notes: Tested as human IgG1; also called human IgG1 7F11 anti-CD19 antibody
Consider B3, for which the “fold higher binding on human than” value was at most 10 fold.

B4: 5F5 antibody (antibody, human IgG1, V domains shown)
VH: EVQLVQSGAEVKKPGESLKISCKGSGYSFTSYWIGWVRQMPGKGLEWMGIIYPGDSDTRYSPSFQGQVTISADKSISTAYLQWSSLKASDTAMYYCARGISGIYNLHGFDIWGQGTLVTVSS
VL: DIQMTQSPSSLSASVGDRVTITCRASQSISSYLNWYQQKPGKAPKLLIYAASSLQSGVPSRFSGSGSGTDFTLTISSLQPEDFATYYCQQASLDSPLTFGQGTKVEIK
notes: Tested as human IgG1; also called human IgG1 5F5 anti-CD19 antibody
Turning to B4, the “fold higher binding on human than” value was at most 10 fold.

B5: F6 antibody (antibody, human IgG1, V domains shown)
VH: EVQLVQSGAEVKKPGESLKISCKGSGYSFTSYWIGWVRQMPGKGLEWMGIIYPGDSDTRYSPSFQGQVTISADKSISTAYLQWSSLKASDTAMYYCARVWYYDFWSGADAFDIWGQGTLVTVSS
VL: EIVMTQSPATLSVSPGERATLSCRASQSVSSNLAWYQQKPGQAPRLLIYGASTRATGIPARFSGSGSGTEFTLTISSLQSEDFAVYYCQQGSLEAPQTFGQGTKVEIK
notes: Tested as human IgG1; also called human IgG1 F6 anti-CD19 antibody
Take B5: the “fold higher binding on human than” value was at most 10 fold.

B6: 7F1 antibody (antibody, human IgG1, V domains shown)
VH: EVQLVQSGAEVKKPGESLKISCKGSGYSFTSYWIGWVRQMPGKGLEWMGIIYPGDSDTRYSPSFQGQVTISADKSISTAYLQWSSLKASDTAMYYCARGDYWTGFAYWGQGTLVTVSS
VL: QSVLTQPPSVSAAPGQKVTISCSGSSSNIGNNYVSWYQQLPGTAPKLLIYDNNKRPSGIPDRFSGSKSGTSATLGITGLQTGDEADYYCGTWDLGWNSVFGGGTKLTVL
notes: Tested as human IgG1; also called human IgG1 7F1 anti-CD19 antibody
In the case of B6, the “fold higher binding on human than” value was at most 10 fold.
